This passage reports Km, Vmax and Vmax/Km results from paper PMC8552062, “Contributions of UDP-Glucuronosyltransferases to Human Hepatic and Intestinal Metabolism of Ticagrelor and Inhibition of UGTs and Cytochrome P450 Enzymes by Ticagrelor and its Glucuronidated Metabolite” (Frontiers in Pharmacology, 2021).

One may read the Km as the substrate concentration at which the rate is half of its maximum. For orientation: Vmax means the top rate of the reaction or transport when substrate is in excess.

Substrate in data set [1]: CCCSc1nc(N[C@@H]2C[C@H]2c2ccc(F)c(F)c2)c2nnn([C@@H]3C[C@H](OCCO)[C@@H](O)[C@H]3O)c2n1
Nature of the data set: Ticagrelor glucuronidation by recombinant human UGT1A4. The class given is in vitro ADME. The conditions noted are these: other: recombinant UGT1A4, Michaelis-Menten kinetics; pH 7.4; 37.0 °C. On the procedure: (§1) Ticagrelor glucuronidation was investigated in an in vitro incubation system by using HLM, HIM, and recombinant human UGTs. The incubation system consisted of enzyme sources (HLM, HIM, or human recombinant UGTs), various concentrations of ticagrelor (dissolved in 50% methanol, 1% v/v, 1, 2, 5, 10, 20, 50, 100, 200, 500 μM of final concentration), alamethicin (50 μg/mg protein), 5 mM MgCl2, 100 mM tris-HCL buffer (pH 7.4), and 5 mM UDPGA in a total volume of 100 μl. Alamethicin is a pore-forming polypeptide used to activate UGTs in HLM and HIM ([Fisher et al., 2000]). Preliminary studies were conducted to determine the optimal protein concentrations and incubation times. Linear conditions of ticagrelor-O-Glu formation from ticagrelor, i.e., HLM, 0.2 mg of protein/ml and 60 min, HIM, 0.2 mg of protein/ml and 60 min, and recombinant human UGTs, 0.2 mg of protein/ml and 60 min were selected. The incubation mixture without UDPGA was placed on ice for 15 min to activate UGT by alamethicin. After pre-incubation for 5 min at 37°C, the reactions were started by the addition of UDPGA. After another 60 min of incubation at 37°C, the reaction was terminated by adding 100 μl of acetonitrile containing internal standard (diazepam). The mixture vortexed for 2 min and then centrifuged at 14,000 rpm for 10 min at 4°C. The resulting supernatant was injected into a liquid chromatography tandem mass spectrometry (LC-MS/MS, Applied Biosystems/MDS Sciex, Foster City, CA) system for the detection of ticagrelor-O-Glu.
(§2) Kinetic analyses were performed using the mean values of triplicate determinations with either pooled HLM, HIM, or recombinant human UGTs. All data were analyzed by nonlinear regression analysis using the GraphPad Prism 6 (GraphPad Software Inc., CA, United States). Michaelis-Menten kinetics (Eq. 1) or substrate inhibition kinetics (Eq. 2) ([Houston and Kenworthy, 2000]) were tested to determine the optimal model for describing the data. […] Intrinsic clearance (CLint) was calculated by dividing Vmax by Km.

Substrate in data set [2]: CCCSc1nc(N[C@@H]2C[C@H]2c2ccc(F)c(F)c2)c2nnn([C@@H]3C[C@H](OCCO)[C@@H](O)[C@H]3O)c2n1
Briefly: Ticagrelor glucuronidation by recombinant human UGT1A3. The class given is in vitro ADME. Particulars: other: recombinant UGT1A3, Michaelis-Menten kinetics; pH 7.4; 37.0 °C. Here is the method:
as §1, §2

B1: recombinant human UGT1A4 (Homo sapiens) (protein)
chain: GKVLVVPTDGSPWLSMREALRELHARGHQAVVLTPEVNMHIKEEKFFTLTAYAVPWTQKEFDRVTLGYTQGFFETEHLLKRYSRSMAIMNNVSLALHRCCVELLHNEALIRHLNATSFDVVLTDPVNLCGAVLAKYLSIPAVFFWRYIPCDLDFKGTQCPNPSSYIPKLLTTNSDHMTFLQRVKNMLYPLALSYICHTFSAPYASLASELFQREVSVVDLVSYASVWLFRGDFVMDYPRPIMPNMVFIGGINCANGKPLSQEFEAYINASGEHGIVVFSLGSMVSEIPEKKAMAIADALGKIPQTVLWRYTGTRPSNLANNTILVKWLPQNDLLGHPMTRAFITHAGSHGVYESICNGVPMVMMPLFGDQMDNAKRMETKGAGVTLNVLEMTSEDLENALKAVINDKSYKENIMRLSSLHKDRPVEPLDLAVFWVEFVMRHKGAPHLRPAAHDLTWYQYHSLDVIGFLLAVVLTVAFITFKCCAYGYRKCLGKKGRVKKAHKSKTH
notes: purchased BD Gentest; host or cells: baculovirus-infected insect cells
B1: in data set [1], the Km amounted to 10.28 µM, the Vmax turned out to be 3.6e-07 µmol/min/mg and the Vmax/Km was 0.04 µL/min/mg.

B2: recombinant human UGT1A3 (Homo sapiens) (protein)
chain: GKVLVVPIDGSHWLSMREVLRELHARGHQAVVLTPEVNMHIKEENFFTLTTYAISWTQDEFDRHVLGHTQLYFETEHFLKKFFRSMAMLNNMSLVYHRSCVELLHNEALIRHLNATSFDVVLTDPVNLCAAVLAKYLSIPTVFFLRNIPCDLDFKGTQCPNPSSYIPRLLTTNSDHMTFMQRVKNMLYPLALSYICHAFSAPYASLASELFQREVSVVDILSHASVWLFRGDFVMDYPRPIMPNMVFIGGINCANRKPLSQEFEAYINASGEHGIVVFSLGSMVSEIPEKKAMAIADALGKIPQTVLWRYTGTRPSNLANNTILVKWLPQNDLLGHPMTRAFITHAGSHGVYESICNGVPMVMMPLFGDQMDNAKRMETKGAGVTLNVLEMTSEDLENALKAVINDKSYKENIMRLSSLHKDRPVEPLDLAVFWVEFVMRHKGAPHLRPAAHDLTWYQYHSLDVIGFLLAVVLTVAFITFKCCAYGYRKCLGKKGRVKKAHKSKTH
notes: as for B1
In the case of B2, in data set [2], the Km came to 19.19 µM, the Vmax is 7.8e-07 µmol/min/mg and the Vmax/Km was determined as 0.04 µL/min/mg.
